# Data from PMC6565636, “Rif1 promotes association of G-quadruplex (G4) by its specific G4 binding and oligomerization activities”.
# Molecular target: T1, Rif1 full-length (His6-Rif1-FLAG3) (Schizosaccharomyces pombe (fission …, UniProt Q96UP3 1-1400))
# T1 sequence: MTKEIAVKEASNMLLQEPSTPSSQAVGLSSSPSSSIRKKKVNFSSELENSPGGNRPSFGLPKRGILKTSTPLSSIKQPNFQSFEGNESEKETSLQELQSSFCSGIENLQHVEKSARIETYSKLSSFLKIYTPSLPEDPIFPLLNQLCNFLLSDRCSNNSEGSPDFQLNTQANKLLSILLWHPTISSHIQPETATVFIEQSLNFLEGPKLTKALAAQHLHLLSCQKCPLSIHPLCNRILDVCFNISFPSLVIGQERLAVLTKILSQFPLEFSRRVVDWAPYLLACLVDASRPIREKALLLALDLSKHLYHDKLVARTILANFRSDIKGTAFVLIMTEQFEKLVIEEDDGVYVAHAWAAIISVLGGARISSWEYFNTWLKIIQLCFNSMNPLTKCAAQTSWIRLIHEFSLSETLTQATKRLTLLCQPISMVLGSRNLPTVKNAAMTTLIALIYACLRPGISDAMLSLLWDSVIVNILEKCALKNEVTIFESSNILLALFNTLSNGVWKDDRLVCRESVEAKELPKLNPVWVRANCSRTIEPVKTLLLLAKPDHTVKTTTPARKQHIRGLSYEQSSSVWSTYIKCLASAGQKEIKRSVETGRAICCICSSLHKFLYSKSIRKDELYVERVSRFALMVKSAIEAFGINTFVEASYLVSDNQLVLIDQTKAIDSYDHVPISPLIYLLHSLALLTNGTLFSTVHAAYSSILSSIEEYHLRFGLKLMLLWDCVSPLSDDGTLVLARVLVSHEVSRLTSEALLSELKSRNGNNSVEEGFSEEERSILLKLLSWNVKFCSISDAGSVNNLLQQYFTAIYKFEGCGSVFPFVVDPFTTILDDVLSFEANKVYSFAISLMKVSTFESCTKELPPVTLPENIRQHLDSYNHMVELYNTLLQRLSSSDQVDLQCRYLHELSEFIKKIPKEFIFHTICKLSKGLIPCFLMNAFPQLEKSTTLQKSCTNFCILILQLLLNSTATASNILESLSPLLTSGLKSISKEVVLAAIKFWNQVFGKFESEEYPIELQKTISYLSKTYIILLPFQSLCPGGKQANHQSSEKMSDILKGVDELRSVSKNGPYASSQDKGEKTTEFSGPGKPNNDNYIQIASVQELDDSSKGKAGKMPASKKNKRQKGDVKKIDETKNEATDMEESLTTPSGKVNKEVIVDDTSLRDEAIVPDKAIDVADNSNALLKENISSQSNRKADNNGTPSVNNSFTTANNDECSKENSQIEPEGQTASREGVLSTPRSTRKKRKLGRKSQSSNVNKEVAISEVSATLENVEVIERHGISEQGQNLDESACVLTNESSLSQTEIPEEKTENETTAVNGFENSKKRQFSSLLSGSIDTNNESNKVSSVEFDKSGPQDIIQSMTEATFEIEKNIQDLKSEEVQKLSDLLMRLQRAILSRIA
# Assay: EMSA; KCl; EMSA with oligos heat-denatured and renatured in 50 mM KCl/40% PEG200 (Fig 5: 50 mM Tris-HCl pH 7.5 with KCl, NaCl or none); gel shift buffer 40 mM Hepes-KOH pH 7.6, 50 mM KCl, 1 mM EDTA, 10% glycerol, 0.01% Triton X-100; pull-down 30 min at room temperature; +++/++/+ = >50/>16/>6% shift at 1 nM Rif1
# Conditions: protein: recombinant, tags: N-term His6, C-term FLAG3, label: 32P
binder,measurement,setting,value
AGGGTTAGGGAGGGAGGGTGG (structured_DNA) [CEB1_TTA],binding result,parallel G4 in KCl,binds
TAGGGAGGGTTAGGGTTAGGG (structured_DNA) [Htelo1_A],binding result,hybrid or mix G4,no binding
AGGGCTAGGGCTACTAGGGGGG (structured_DNA) [Htelo4(GGGGGG)_3nt_spacer],binding result,"hybrid G4 in KCl, antiparallel in NaCl",binds
TTTTTTGAGAGAGAGAGAGAGAGAGAGAGA (ssDNA) [T6(GA)12],binding result,no G4,no binding
AGTGGGAGTGGG (structured_DNA) [(AGTGGG)2],binding result,,binds
TAGGGGGGTTAGGGTTAGGG (structured_DNA) [Htelo1_no_spacer],binding result,parallel G4,binds
DX1 (dsDNA) DNA 1: CGCGAATTCGCG DNA 2: CGCGAATTCGCG,binding result,"blunt, self-complementary",no binding
AGTGGG (ssDNA),binding result,,no binding
TGAGGGTGGTGAGGGTGGGGA (structured_DNA) [Pu24T],binding result,parallel G4,binds
TTGGGGGTGGGTGGGTGGGT (structured_DNA) [T95_2T_GG],binding result,parallel G4,no binding
TTGGGGTGGGTGGGTGGGT (structured_DNA) [T95_2T_G],binding result,parallel G4,no binding
AGTGGGAGTGGGAGTGGGAGTGGG (structured_DNA) [(AGTGGG)4],binding result,,binds
AGGGGGGAGGGAGGGTGG (structured_DNA) [CEB1],binding result,parallel G4 (dimeric),binds
AGGGTAGGGAGGGAGGGTGG (structured_DNA) [CEB1_TA],binding result,parallel G4 in KCl,binds
AGGGAGGGAGGGAGGGTGG (structured_DNA) [CEB1_A],binding result,parallel G4,binds
GGGTTAGGGTTAGGGTTAGGGT (structured_DNA) [Htelo3],binding result,hybrid G4 in K+ (CD),no binding
AGTGGGGGAGTGGGGG (structured_DNA) [(AGTGGGGG)2],binding result,,binds
AGTGGGGAGTGGGG (structured_DNA) [(AGTGGGG)2],binding result,,binds
AGGGCTAGGGCTACTAGGGCTAGGG (structured_DNA) [Htelo4_3nt_spacer],binding result,antiparallel G4,no binding
AGGGCTAGGGCTAGGGCTAGGG (structured_DNA) [Htelo4],binding result,antiparallel G4 (chair),no binding
ATCTGAGAATCAGAT (structured_DNA) [DX2],binding result,hairpin,no binding
Rif1-8 (70 nt) (structured_DNA) DNA: GTGGGGGATGTGGGATAGACTATTTTAGACTTGAGACTGTGTATTCACTTAAAAGTGCTATGTGGGGGCA,binding result,parallel G4,binds
AGGGCTAGGGCTAGGGGGG (structured_DNA) [Htelo4(GGGGGG)],binding result,hybrid G4,binds
TAGGGTTAGGGTTAGGGGGG (structured_DNA) [Htelo1_no_spacer_2],binding result,"mix G4 in KCl, antiparallel in NaCl",binds
AGTGGGGAGTGGGGAGTGGGGAGTGGGG (structured_DNA) [(AGTGGGG)4],binding result,,binds
AGGGGGGAGGGAGGGT (structured_DNA) [CEB1_deltaGG],binding result,parallel G4,binds
